From the supplement of paper PMC9170038

Tested on: K4 kissing-loop RNA reporter
Assay: apparent KD of K4 kissing-loop reporter; higher = weaker reporter binding
Conditions: Eterna round: R107
Method: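 RNA-MaP round R107: designed RNA switches with theophylline, tryptophan, arginine or FMN aptamers are transcribed on-chip within common flanks. They are titrated with a labelled K4 kissing-loop RNA reporter in RNA-MaP buffer (100 mM Tris pH 7.5, 80 mM KCl, 4 mM MgCl2), without ligand or with the indicated ligand. Median apparent KD per design.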

[1] = input ligand: theophylline 20 uM
[2] = input ligand: tryptophan 2.4 mM
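Also: bound reporter read as fluorescence of individual clusters on recovered sequencing chips by microscopy, with normalized cluster intensities fitted with a binding model.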

Sequence | apparent KD of K4 kissing-loop reporter (input ligand: FMN 200 uM) | apparent KD of K4 kissing-loop reporter (input ligand: arginine 13.2 mM) | apparent KD of K4 kissing-loop reporter (input ligand: none) | apparent KD of K4 kissing-loop reporter [1] | apparent KD of K4 kissing-loop reporter [2]
CUAAUCGCUCAUGAUACCAGCUAGUGAUGUUAGCCCGUCAAGCUGAGGGUUCAUCCACCCAGCCCUUGGCAGCAUUCUCGGUCAG [theeternabot_exclusion_KL_Theo_B_8] | 441 nM | 313 nM | 387 nM | 449 nM | 364 nM
CUAGCUAGCAUGGAAACAUGCUAGCUAGAUUAGGAUAUGACGUAAGUCAGAAGGGAUAAAUGGAGUGAUGUUCCGGACGCAAGUC [#2 Same State - FMN A Attempt #4 (HarryS)] | 255 nM | 237 nM | 247 nM | 295 nM | 186 nM
CUAUGGAAACAUAGGAAUCGGGAAACCGAUACCAGUAUGGAAACAUACCCUUGGCAGCGGAAUGAUUCAACGGAGUGAUGUUCCG [Theophylline A K4 20] | 395 nM | 327 nM | 399 nM | 293 nM | 321 nM
CUAUGGAAACAUAGGAGUCGGGAAACCGAUACCAGUAUGGAAACAUACCCUUGGCAGCGGAAUGAUUCAACGGAGUGAUGUUCCG [Theophylline A K4 19] | 458 nM | 366 nM | 400 nM | 322 nM | 366 nM
CUCAGAAAGACUGUCCAAGUGAUGUUUGGACGAGGACCGGUACGGCCGCCACUCGCUGUUGCGAAUGUUAAGGUACGAGUCGCGG [theeternabot_exclusion_KL_Trp_A_30] | 84.8 nM | 89.7 nM | 89.1 nM | 101 nM | 91.7 nM
CUCGAGUGAUGUUCGAUUAUUUAUACAGAUACCAGUGAAUUUUAACACCCUUGGCAGCUGGUAGUAUCUUUGUAAUUUUAACUAG [JR_ExcTheophyA_Sub003] | 133 nM | 181 nM | 147 nM | 176 nM | 111 nM
CUGACCAACAGCGAUACCAGCGUGGAGUGAUGUUCCCUGGUCCGGGCUGAUGUUCCCUUGCGCCCUUGGCAGCGCAGAAGCAGGA [Exclusion Theophylline B GF 12] | 296 nM | 263 nM | 351 nM | 303 nM | 281 nM
CUGAGCCUGACGCAAGUCAGGCUCUGCGAGCGAGGACCGGUACGGCCGCCACUCGGUGCAGUGAUGUUGCAUGGCCGCAAGGCCG [#2 Exclusion - Tryptophan A Attempt #21 (HarryS)] | 254 nM | 215 nM | 274 nM | 218 nM | 306 nM
CUUAAGGAGUGUCGUGCCGGACACUGGGAAGGAGCGCAAUUCUUUGCAGGUAGGUCGCCCAGUGAUGUUGGGUGGCGCUGUCGAA [Laatonbi] | 190 nM | 156 nM | 149 nM | 156 nM | 128 nM
CUUCGUAAGGGCCCAGUGAUGUUGGGCACUCGAGGACCGGUACGGCCGCCACUCGCUCCCUAAGUCGCGCGCGUGGGCCACCGCC [Rezariatra] | 128 nM | 111 nM | 116 nM | 102 nM | 139 nM
CUUGAUGGAAACAUCGAGUAGAUUACUGAUACCAGUAUCGAUAGAUACCCUUGGCAGCAGAAUCAGUAAUCACGAGUGAUGUUCG [Ex Theophylline A K4 7] | 535 nM | 528 nM | 555 nM | 518 nM | 485 nM
GAACCAGAGGUUGCUGCGGGUUCCAGAGAUACCAGCCGUAUUGAAGGCCCUUGGCAGCUCGAGUGAUGUUCGAGCCGCCUCUGGC [Antius] | 118 nM | 96.8 nM | 120 nM | 103 nM | 103 nM
GAAGUACAGGCGGCCGCCACUAGUGAUGUUAGUGAUAAAAGAUAAAGUAUAUAUCGGCAUGUAGAUAGGACCGGGCCUGAUGGAG [uiiumullin] | 118 nM | 296 nM | 186 nM | 203 nM | 298 nM
GAGGUACAGGCGGCCGCCACUAGUGAUGUUAGUGAUAGAAGAUAUAGUAAAUAUCGGCAUGUAGAUAGGACCGGGCCUGGUGGAG [vvgtcmullin] | 291 nM | 234 nM | 288 nM | 327 nM | 287 nM
GAGUGGCAGACGGCCGCCACUCUUAGCAGCCAGCGGAGUGAUGUUCCGCCCGAGUGAUGUUCGGAGAGGACCGGGUUUGUUGUAA [Exclusion Tryptophan B GF 29] | 119 nM | 146 nM | 146 nM | 149 nM | 125 nM
GAUAUAGUGAUGUUAUAUACUGAUAGACAACGAGGACCGGUACGGCCGCCACUCGAGAGGGUGAAAUUAAUGAUAAAAUAAUAAU [ExyTryA#2] | 322 nM | 351 nM | 356 nM | 307 nM | 270 nM
GAUUCAGUGAUGUUGGAAGGCGAGCGGGAUACCAGCCGAGACUCAGGCCCUUGGCAGCCCACAUAUCCCAGGUAGAUAGUCGAUC [Same State - Theophylline A (Freestyle 9)] | 185 nM | 118 nM | 170 nM | 165 nM | 160 nM
GAUUCUGUUCGAAAGAACGGAAUCACGGAAGGAGCGAGAGAAAUCUCAGGUAGGUCGCCGAAUUUUUGAUAGUGAUGUUAUCAUU [Arginine A K4 2] | 422 nM | 353 nM | 388 nM | 408 nM | 426 nM
GAUUUAGAGGCGGCCGCCACUAGUGAUGUUAGUGAUGUUUGAUACUGAAUAUAUCUGCGUUUAGAUAGGACCGGGCCAGAUGGAG [qzwqmullin] | 234 nM | 164 nM | 181 nM | 193 nM | 177 nM
GCAGACACGCAGUGAUGUUGCGAAACGGAAGGAGCGCGUGAAAACGCAGGUAGGUCGCCGAAACAUAAAUUAUAAUUUUGUUUGC [Arginine A K4 13] | 244 nM | 194 nM | 221 nM | 240 nM | 177 nM
GCAGUCAAUCGACCACGAAAGUGGAUGGAUACCAGAGUCGAAAGACUCCCUUGGCAGCCAGUGAUGUUGGAAGACUGCAAUAAAA [#SwitchBubble 16 #K4Late] | 1120 nM | 357 nM | 622 nM | 479 nM | 468 nM
GCAGUGAUGUUGCGCAUGUACAGUGGAGUGCGAGGACCGGUACGGCCGCCACUCGUACAGAACAAGCUAAUAUAUGGAUAGGUGA [IX] | 418 nM | 525 nM | 543 nM | 510 nM | 306 nM

Sequence | apparent KD of K4 kissing-loop reporter (input ligand: FMN 200 uM) | apparent KD of K4 kissing-loop reporter (input ligand: arginine 13.2 mM) | apparent KD of K4 kissing-loop reporter (input ligand: none) | apparent KD of K4 kissing-loop reporter [1] | apparent KD of K4 kissing-loop reporter [2]
GCAGUGAUGUUGCGGAUGUACAGUGGCGUGCGAGGACCGGUACGGCCGCCACUCGUACAGCACAAGCUAAUACAUCGAUAGGUGA [whbob_SS_Tryp_A_m2] | 566 nM | 287 nM | 357 nM | 380 nM | 430 nM
GCAGUGAUGUUGCGGAUGUACAGUGGGAUACGAGGACCGGUACGGCCGCCACUCGUACAGAACAAGCUAAUACAUCGAUAGGUGA [XII] | 265 nM | 281 nM | 339 nM | 373 nM | 301 nM
GCAGUGAUGUUGCUGAUGUGCAGUGGUAGUCGAGGACCGGUACGGCCGCCACUCGGUGAGAAUUUGCUAAUACAUCGAUAAGUGA [XVII] | 1210 nM | 614 nM | 1280 nM | 858 nM | 904 nM
GCAUCCAUGGCAGGAUAUAGGUUCGUGGAGUGAUGUUCCAUAACCCGAGUGAUGUUCGUUAUCCACCUAGAAGGGCCAUGGAUGC [whbob_Ex_FMNB__2th211] | 212 nM | 204 nM | 218 nM | 215 nM | 184 nM
GCAUGCAUGGCAGGAUAUAAUCUGGAGUGAUGUUCCUUUAACCUUUCGAACGGCGAGCCAGGUUGAUUAGAAGGGCCAUGCAUGC | 435 nM | 476 nM | 622 nM | 628 nM | 530 nM
GCCAGUGAUGUUGGCAUUUCGAGCCAUGAAGGAGCGCACGGAAGUGCAGGUAGGUCGCAUGGUACUUAAGAUAUUAUCCUAAGUA [Atceis] | 210 nM | 162 nM | 192 nM | 177 nM | 129 nM
GCCAUCAGGUCGCAAGACCUGAUAGCCGAUACCAGCGCGAAGGUGCGCCCUUGGCAGCGGCACCGAGUGAUGUUCGGUCAGGCGG [#2 Same State - Theophylline A Attempt #3 (HarryS)] | 490 nM | 490 nM | 595 nM | 291 nM | 554 nM
GCCGUACGCAUGGAUACCAGCAACCCUGCCAUCCCAGUGAUGUUGGGAGGAACAUUCUCAUGCCCUUGGCAGCCAUGCGUACGGC | 534 nM | 358 nM | 473 nM | 384 nM | 459 nM
GCCGUACGCAUGGAUACCAGUCUUAGAGUGAUGUUCUAUACGAUUGCGCCUGGAUCAAUGGACCCUUGGCAGCCAUGCGUACGGC | 144 nM | 112 nM | 123 nM | 114 nM | 124 nM
GCCGUAGAUGGAAGGAGCGAGUCCAAACCAUAUUGCUGAAAAUUCGAGUGAUGUUCGUAAGCUCAGGUAGGUCGCCAUCUACGGC | 206 nM | 184 nM | 209 nM | 161 nM | 187 nM
GCCGUAGAUUGAAGGAGCGGGAUAGAGAAAGUGAUGUUUUCUCUUUGACGGCGUCCUCGAUCCCAGGUAGGUCGCAAUCUACGGC | 76.1 nM | 75.2 nM | 81.2 nM | 73.5 nM | 70.2 nM
GCCGUAGAUUGAAGGAGCGUUCUUCAGCAAACUUGCAGUGAUGUUGCAUUAAACAUGUAAGAACAGGUAGGUCGCAAUCUACGGC | 145 nM | 138 nM | 155 nM | 129 nM | 121 nM
GCCUAGCAGGGAAGGAGCGCCAUAUAAUUAAAAGUUAAUUAAUGAGUGAUGUUCAAAUAAUGGCAGGUAGGUCGCCCUGCUAGGC [KL-SSArg B9] | 378 nM | 289 nM | 329 nM | 316 nM | 323 nM
GCCUAGCAGGGAAGGAGCGGCAUAAGCAUAGAUAAUAUGCAGUUAGUGAUGUUAAUACUAUGCCAGGUAGGUCGCCCUGCUAGGC [KL-SSArg B7] | 752 nM | 457 nM | 688 nM | 623 nM | 537 nM
GCCUAGCAGGGAAGGAGCGGCAUAGGCAUAGAUAAUAUGCAGUUAGUGAUGUUAACACUAUGCCAGGUAGGUCGCCCUGCUAGGC [KL-SSArg B8] | 201 nM | 95.4 nM | 192 nM | 120 nM | 125 nM
GCCUGGGCACGAAGGAGCGCCGUGACAGGUUACUGCAUUGGGCAGUGAUGUUGCUCAAUCUGGCAGGUAGGUCGCGUGCCCAGGC | 106 nM | 114 nM | 110 nM | 120 nM | 113 nM
GCCUUAUAUCCAGCUACAGCUCUUUUUGGUCGAGGACCGGUACGGCCGCCACUCGAAUGAUAGUGAUGUUAUCGUUUUGUACUAA [JR_Nu_ExcTryptoA_Sub024] | 97.9 nM | 112 nM | 108 nM | 101 nM | 54.7 nM
GCCUUAUAUCGAGCUACAGCUCGAUUUGGUCGAGGACCGGUACGGCCGCCACUCGAAUGAUAGUGAUGUUAUCAUUAUGGCCUAA [JR_ExcTryptoA_Sub022] | 185 nM | 137 nM | 183 nM | 130 nM | 148 nM
GCGAACAUUCGCAGUGAUGUUGCGACGGAAGGAGCGCGUGAAAACGCAGGUAGGUCGCCGACAAAAUUAAUUUUAAUGUGUUCGC [Arginine A K4 27] | 373 nM | 440 nM | 488 nM | 471 nM | 315 nM
GCGGACAUUCGCAGUGAUGUUGCGACGGAAGGAGCGCGUGAAAACGCAGGUAGGUCGCCGACAAAAUUAAUUUUAAUGUGUUCGC [Arginine A K4 30] | 362 nM | 387 nM | 394 nM | 415 nM | 306 nM
GCGGGCCAGACGGCCGCCACUCCGGGCAGUGAUGUUGCGAAAAUUCUACUAGAGUGAUGUUCUACGAGGACCGGGUCGGAACGCG [Exclusion Tryptophan B Gf 12] | 370 nM | 476 nM | 538 nM | 495 nM | 257 nM
GCGGGCCCGGGAGGAUAUGAGUCGAGUGAUGUUCGGCGGUCCAUGCCGUUGCGGCGUUAAGCCCUUUUAGAAGGCCCGGGCCCGC [#2 Exclusion - FMN B Attempt #2 (HarryS)] | 208 nM | 137 nM | 161 nM | 138 nM | 184 nM
